Test results taken from patent US11872307B2, “Liquisoft capsules” (PATHEON SOFTGELS INC., priority 2015, dated 2024).

Assay: Appearance / precipitation of matrix fill
Format: physicochemical
Settings: dextromethorphan hydrobromide 30 mg, menthol 5 mg
Method: Formulas 14, 15, and 16 were the initial matrix prototypes for dextromethorphan hydrobromide (30 mg) and menthol (5 mg). Three different taste-masking agents were tested: mannitol, thaumatin (Talin®) and glycyrrhizic acid salts (MagnaSweet®).
Thaumatin and glycyrrhizic acid salts were employed with the lower active pharmaceutical ingredient dose, individually and as a combination. […] Thus, the glycyrrhizic acid salts were not further assessed for chemical stability. Thus, Formula 19 was formulated using thaumatin and used for excipient compatibility studies.

Which “appearance of matrix fill” value does the source give for Thaumatin here?
Its value is “hazy appearance”.
